Values quoted from earlier work as cited in PMC2483503.
Blank lines part the entries; values can stand above or below the substance they belong to.

Tests used:
Assay in all cases: ITC
[1] = target: FAK proline-rich peptide (PXXP) (Homo sapiens) (UniProt Q05397)
[2] = target: FAK peptide FAK peptide (proline-rich and pY motifs) (Homo sapiens) (UniProt Q05397)
[3] = target: FAK peptide (Homo sapiens) (UniProt Q05397)
[4] = target: CD3 zeta ITAM N-terminal pY peptide ITAM N-terminal pY peptide (Homo sapiens) (UniProt P20963)
[5] = target: CD3 zeta ITAM C-terminal pY peptide ITAM C-terminal pY peptide (Homo sapiens) (UniProt P20963)
[6] = target: CD3 zeta ITAM bisphosphopeptide ITAM bisphosphopeptide (Homo sapiens) (UniProt P20963)

ZAP70 SH2 domains, sequence (P43403 1-259): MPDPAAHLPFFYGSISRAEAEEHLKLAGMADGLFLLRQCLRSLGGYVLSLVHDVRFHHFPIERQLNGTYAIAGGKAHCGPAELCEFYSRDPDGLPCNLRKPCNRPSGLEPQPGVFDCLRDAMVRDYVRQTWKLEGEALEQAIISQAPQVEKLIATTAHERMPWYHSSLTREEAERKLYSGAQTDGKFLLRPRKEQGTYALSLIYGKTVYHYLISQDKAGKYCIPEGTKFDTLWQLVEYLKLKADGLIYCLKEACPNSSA
Fyn SH3-SH2, sequence (P06241 82-246): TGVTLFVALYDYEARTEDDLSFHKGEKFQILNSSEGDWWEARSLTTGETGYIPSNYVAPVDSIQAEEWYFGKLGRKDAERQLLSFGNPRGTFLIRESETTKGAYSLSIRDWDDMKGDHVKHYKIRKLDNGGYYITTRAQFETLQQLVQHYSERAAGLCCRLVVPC
FAK peptide (Homo sapiens), sequence (Q05397 2-1052): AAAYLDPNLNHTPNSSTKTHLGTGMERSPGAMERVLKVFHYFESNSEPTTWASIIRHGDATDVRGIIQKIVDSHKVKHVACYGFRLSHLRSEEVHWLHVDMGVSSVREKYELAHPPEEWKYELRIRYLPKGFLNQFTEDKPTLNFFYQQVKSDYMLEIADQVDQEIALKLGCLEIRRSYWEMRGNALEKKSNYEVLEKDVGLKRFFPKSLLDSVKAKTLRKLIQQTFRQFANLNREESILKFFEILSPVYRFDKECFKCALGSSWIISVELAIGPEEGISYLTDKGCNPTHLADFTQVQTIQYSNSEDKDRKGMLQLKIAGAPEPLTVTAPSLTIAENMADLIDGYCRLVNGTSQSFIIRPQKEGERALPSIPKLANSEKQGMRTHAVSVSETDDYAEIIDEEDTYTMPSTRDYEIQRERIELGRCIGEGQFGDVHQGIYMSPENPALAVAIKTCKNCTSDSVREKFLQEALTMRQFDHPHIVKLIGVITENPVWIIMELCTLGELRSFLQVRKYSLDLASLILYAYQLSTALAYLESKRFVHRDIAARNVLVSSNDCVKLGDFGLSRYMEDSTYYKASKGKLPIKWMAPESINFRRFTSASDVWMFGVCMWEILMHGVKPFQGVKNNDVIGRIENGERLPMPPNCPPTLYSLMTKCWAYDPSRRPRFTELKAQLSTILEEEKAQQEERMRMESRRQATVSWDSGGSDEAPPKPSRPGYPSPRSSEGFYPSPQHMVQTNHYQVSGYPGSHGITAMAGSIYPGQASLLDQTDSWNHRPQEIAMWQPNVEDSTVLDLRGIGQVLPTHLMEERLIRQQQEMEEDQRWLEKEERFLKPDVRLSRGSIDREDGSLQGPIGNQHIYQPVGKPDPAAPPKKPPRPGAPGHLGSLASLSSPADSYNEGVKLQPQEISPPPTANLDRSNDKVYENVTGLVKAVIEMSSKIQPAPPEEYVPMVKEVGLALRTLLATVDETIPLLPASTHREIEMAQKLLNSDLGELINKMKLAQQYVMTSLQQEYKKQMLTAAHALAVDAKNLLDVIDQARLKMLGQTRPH
Fyn SH3, sequence (P06241 79-146): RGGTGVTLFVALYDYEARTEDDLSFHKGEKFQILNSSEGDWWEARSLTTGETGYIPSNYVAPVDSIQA
FAK peptide FAK peptide (proline-rich and pY motifs) (Homo sapiens), sequence (Q05397 368-403): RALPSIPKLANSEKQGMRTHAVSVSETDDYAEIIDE

Kd [1]: 62 µM
Substance: Fyn SH3 (from UniProt P06241)

Kd [2]: 0.19 µM
Kd [3]: 0.19 µM
Substance: Fyn SH3-SH2 (from UniProt P06241)

Kd [4]: 142 µM
Kd [5]: 333 µM
Kd [6]: 0.032 µM
Substance: ZAP70 SH2 domains (from UniProt P43403)
